Data as given in patent US20160377619A1 (MEDICINAL BIOCONVERGENCE RESEARCH CENTER, published 2016).

Key:
[1] = target: T1, histidyl-tRNA synthetase (HRS), recombinant (UniProt P12081 1-509, limits assumed); test: Luminex multiplex bead assay, antigen coupled to beads, anti-HA-biotin and SA-PE detection
T1 sequence (looked up): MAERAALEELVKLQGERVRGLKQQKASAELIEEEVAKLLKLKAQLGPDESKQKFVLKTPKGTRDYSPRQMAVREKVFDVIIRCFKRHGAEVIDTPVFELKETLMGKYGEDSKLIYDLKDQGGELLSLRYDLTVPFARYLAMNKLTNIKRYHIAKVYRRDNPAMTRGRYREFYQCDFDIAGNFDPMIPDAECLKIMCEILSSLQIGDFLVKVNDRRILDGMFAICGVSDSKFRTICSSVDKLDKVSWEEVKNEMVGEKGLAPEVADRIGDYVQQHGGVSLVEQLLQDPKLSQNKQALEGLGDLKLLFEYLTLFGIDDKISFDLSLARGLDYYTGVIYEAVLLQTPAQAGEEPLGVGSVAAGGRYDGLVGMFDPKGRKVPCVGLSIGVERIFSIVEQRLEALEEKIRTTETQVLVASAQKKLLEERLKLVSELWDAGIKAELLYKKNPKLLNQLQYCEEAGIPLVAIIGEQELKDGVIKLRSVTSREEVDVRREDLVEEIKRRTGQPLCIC
Description: (§1) Then, 50 mg/ml S—NHS (N-hydroxysulfosuccinimide) and 50 mg/ml EDAC (1-ethy-3-[3-dimethylaminopropyl]carbodiimide) were added, followed by activation at room temperature for 20 minutes. The activated beads were washed with PBS, and then 10 μg of respective recombinant ARS antigens, that is, WRS, HRS, NRS, KRS, SRS, YRS, GRS, and AIMP1(p43), which were purified at purity of 90% or higher, were added, followed by reaction at room temperature for 2 hours. The beads linked to the respective ARS antigens were washed. two times with PBS, and then a blocking buffer was added to perform a reaction at room temperature for 30 minutes, thereby blocking unbound residues. Then, the resultant beads were washed two times with PBS, and again dispersed in 100 μl of PBS, and kept in tubes in which the light was blocked. The number of beads bound was measured and recorded by hemocytometer.
(§2) The antibody of the present invention extracted from the periplasm was first diluted with a specimen diluent (PBST+2% BSA) to 1:400. Then, the diluted antibody was diluted 2-fold serially with a specimen diluent, and dispensed in 96 well filter plate at 50 μl for each well. Only the specimen diluent was added in the blank well without the antibody. The ARS-bound beads were put in bead mix tubes to 2000 beads per well, respectively, and the specimen diluent was put with a volume such that 50 μl of the specimen diluent could be put per well. The bead mix solution was well mixed and dispensed in each well, followed by reaction in dark room for 1 hour. After the reaction was ended, the resultant solution was washed three times with PBS (200 μl/well) using a vacuum manifold, 50 μl Anti-(HA)-biotin secondary antibody was added, followed by further reaction in dark room for 1 hour. The beads binding to the secondary antibody were washed three times with PBS, and then, for fluorescent labeling, SA-PE (Streptavidin-Phycoerythrin) was added to 2 μg/ml, followed by reaction in dark room for 30 minutes, washing three times with PBS, and again dispersion in 100 μl of PBS. The fluorescent intensity of the fluorescence-labeled beads was measured using Bio-Plex (Luminex) 200 equipment and Bio-Plex manager program, and the measurement values were analyzed to investigate the binding of the antibody to each ARS.

[2] = target: T2, asparaginyl-tRNA synthetase (NRS), recombinant (UniProt O43776 1-548, limits assumed); test: as above
T2 sequence (looked up): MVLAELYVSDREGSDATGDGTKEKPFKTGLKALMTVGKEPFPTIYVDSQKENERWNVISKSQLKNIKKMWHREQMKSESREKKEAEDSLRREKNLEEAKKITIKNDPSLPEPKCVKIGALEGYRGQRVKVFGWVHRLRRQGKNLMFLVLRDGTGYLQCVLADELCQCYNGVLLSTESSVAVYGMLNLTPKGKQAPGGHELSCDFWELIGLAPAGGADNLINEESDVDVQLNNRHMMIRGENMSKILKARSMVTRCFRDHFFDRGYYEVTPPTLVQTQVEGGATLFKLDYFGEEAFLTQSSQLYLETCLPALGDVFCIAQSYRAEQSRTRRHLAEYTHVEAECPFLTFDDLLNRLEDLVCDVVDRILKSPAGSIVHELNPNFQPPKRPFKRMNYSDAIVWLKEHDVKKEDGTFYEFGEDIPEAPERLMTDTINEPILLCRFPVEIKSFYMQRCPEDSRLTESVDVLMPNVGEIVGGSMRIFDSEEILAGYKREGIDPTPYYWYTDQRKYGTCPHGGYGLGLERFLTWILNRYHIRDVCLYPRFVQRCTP
Description: as §1, §2

[3] = target: seryl-tRNA synthetase (SRS), recombinant (UniProt P49591 1-514, limits assumed); test: as above
Description: as §1, §2

[4] = target: T3, tyrosyl-tRNA synthetase (YRS), recombinant (UniProt P54577 1-528, limits assumed); test: as above
T3 sequence (looked up): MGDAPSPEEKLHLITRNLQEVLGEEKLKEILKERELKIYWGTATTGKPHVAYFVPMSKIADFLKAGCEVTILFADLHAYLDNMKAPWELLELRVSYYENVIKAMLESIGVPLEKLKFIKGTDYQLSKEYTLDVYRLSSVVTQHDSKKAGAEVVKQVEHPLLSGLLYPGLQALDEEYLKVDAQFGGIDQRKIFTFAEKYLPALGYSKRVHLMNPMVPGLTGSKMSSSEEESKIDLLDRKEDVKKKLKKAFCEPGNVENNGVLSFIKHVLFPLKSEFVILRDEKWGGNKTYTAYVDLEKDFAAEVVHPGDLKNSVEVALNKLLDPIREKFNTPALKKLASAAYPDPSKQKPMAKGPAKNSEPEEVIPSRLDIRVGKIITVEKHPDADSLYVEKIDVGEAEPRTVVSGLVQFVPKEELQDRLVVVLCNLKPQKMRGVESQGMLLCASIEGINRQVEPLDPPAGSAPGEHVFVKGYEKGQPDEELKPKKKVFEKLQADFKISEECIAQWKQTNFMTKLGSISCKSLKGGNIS
Description: as §1, §2

[5] = target: T4, glycyl-tRNA synthetase (GRS), recombinant (UniProt P41250 55-739, limits assumed); test: as above
T4 sequence (looked up): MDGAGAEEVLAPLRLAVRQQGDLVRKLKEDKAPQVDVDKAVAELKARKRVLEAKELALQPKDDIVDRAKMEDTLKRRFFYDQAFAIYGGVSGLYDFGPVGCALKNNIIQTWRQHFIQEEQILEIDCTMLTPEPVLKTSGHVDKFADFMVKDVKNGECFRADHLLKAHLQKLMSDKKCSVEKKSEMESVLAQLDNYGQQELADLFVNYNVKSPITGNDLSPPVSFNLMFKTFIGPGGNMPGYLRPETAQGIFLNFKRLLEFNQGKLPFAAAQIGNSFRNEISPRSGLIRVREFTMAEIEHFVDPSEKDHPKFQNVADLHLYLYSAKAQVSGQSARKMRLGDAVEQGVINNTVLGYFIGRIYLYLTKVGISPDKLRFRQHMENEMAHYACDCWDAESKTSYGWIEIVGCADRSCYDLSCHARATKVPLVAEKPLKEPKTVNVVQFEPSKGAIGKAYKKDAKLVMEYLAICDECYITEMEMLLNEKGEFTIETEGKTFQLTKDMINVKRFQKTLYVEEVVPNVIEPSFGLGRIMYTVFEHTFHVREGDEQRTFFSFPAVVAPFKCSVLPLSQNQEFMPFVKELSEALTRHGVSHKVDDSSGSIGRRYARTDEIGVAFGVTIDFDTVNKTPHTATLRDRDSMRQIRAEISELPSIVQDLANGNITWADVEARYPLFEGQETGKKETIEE
Description: as §1, §2

[6] = target: T5, aminoacyl-tRNA-synthetase-interacting multifunctional protein 1 (AIMP1), recombinant (UniProt Q12904 1-312, limits assumed); test: as above
T5 construct: also called AIMP1(p43); p43
T5 sequence (looked up): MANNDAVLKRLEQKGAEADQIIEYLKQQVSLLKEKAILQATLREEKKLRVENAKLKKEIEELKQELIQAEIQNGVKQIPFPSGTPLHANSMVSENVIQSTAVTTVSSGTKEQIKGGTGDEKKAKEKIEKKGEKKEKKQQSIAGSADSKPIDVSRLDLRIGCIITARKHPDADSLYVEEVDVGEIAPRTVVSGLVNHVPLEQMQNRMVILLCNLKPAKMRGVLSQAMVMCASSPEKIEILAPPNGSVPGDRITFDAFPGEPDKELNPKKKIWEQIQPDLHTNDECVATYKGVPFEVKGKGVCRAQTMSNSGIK
Description: as §1, §2

[7] = target: T6, tryptophanyl-tRNA synthetase (WRS), recombinant (UniProt P23381 1-471, limits assumed); test: as above
T6 sequence (looked up): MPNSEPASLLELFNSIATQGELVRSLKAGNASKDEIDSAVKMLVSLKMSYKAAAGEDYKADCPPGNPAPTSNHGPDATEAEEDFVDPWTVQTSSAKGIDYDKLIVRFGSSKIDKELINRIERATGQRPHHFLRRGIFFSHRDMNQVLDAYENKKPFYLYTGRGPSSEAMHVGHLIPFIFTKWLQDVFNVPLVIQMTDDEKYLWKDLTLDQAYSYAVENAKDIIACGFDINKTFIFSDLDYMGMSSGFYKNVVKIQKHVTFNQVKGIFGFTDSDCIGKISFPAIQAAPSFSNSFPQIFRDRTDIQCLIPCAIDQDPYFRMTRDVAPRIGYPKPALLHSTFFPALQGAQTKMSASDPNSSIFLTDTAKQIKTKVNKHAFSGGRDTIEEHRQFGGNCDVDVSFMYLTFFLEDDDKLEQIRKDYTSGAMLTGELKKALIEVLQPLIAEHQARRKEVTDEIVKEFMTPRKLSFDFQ
Description: as §1, §2

[8] = target: T7, lysyl-tRNA synthetase (KRS), recombinant (human, UniProt Q15046 1-597, limits assumed); test: SPR (ProteOn XPR36), KRS amine-coupled to GLC chip, purified scFv injected at 500-30 nM, 25 C
T7 construct: the construct is not described; also called KRS antigen; recombinant KRS standard material
Description: The binding affinity of the antibody of the present invention to KRS antigen was measured using the ProteOnTMXPR36 SPR (surface plasmon resonance) biosensor (Bio-Rad).
Specifically, approximately 10 μg/ml KRS antigen was immobilized at about 2,000-4,000 response units to GLC chip (Bio-Rad 6×6 sensor chip, Compact capacity amine coupling for protein-protein interactions) according to the manufacturer's manual, and then 30 μl of the purified scFv antibody of the present invention, which was diluted with PBS to various concentrations (500-30 nM), was injected to the chip at a rate of 50 μl/min at 25° C. to quantify the interaction with the antigen. The surface of the chip was regenerated with 0.85% phosphoric acid. The association rate and dissociation rate were calculated using the ProteOn Manager software, and the equilibrium dissociation constant (KD) was calculated as a ratio of dissociation rate/association rate.

seryl-tRNA synthetase (SRS), recombinant, sequence (P49591 whole entry): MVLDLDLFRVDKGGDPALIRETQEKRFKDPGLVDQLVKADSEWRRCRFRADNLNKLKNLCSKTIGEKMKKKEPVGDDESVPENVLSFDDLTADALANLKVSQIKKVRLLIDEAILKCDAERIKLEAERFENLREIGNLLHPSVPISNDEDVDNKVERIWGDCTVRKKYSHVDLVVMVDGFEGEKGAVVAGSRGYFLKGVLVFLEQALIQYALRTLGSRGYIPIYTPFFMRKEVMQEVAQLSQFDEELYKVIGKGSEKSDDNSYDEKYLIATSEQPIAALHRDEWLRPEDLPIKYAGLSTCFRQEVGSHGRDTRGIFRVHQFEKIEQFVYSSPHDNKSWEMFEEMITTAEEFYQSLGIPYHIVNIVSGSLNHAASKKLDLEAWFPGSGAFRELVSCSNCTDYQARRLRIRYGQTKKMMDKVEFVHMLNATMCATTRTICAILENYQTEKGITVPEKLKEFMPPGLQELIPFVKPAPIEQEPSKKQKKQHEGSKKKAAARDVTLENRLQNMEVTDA
T7 sequence (Q15046 whole entry): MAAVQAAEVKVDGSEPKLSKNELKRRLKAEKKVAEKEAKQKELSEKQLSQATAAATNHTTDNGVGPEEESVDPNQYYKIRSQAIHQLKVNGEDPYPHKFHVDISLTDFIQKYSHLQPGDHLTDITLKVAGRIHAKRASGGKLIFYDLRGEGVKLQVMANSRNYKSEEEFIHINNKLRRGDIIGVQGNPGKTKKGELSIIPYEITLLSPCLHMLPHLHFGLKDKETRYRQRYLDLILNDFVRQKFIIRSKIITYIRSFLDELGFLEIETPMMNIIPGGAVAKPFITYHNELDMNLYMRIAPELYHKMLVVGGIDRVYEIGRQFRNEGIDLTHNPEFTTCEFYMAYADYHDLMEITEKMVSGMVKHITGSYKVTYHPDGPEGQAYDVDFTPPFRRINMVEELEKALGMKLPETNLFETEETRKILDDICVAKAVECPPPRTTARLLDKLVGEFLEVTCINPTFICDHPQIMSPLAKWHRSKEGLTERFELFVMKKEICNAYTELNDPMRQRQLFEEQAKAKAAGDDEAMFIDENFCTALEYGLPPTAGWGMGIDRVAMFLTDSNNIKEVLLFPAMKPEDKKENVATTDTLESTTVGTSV

B1: anti-KRS scFv Biocon-K1 (scFv)
scFv: EVQLLESGGGLVQPGGSLRLSCAASGFTFSNYAMSWVRQAPGKGLEWVSGISPSSGDTYYADSVKGRFTISRDNSKNTLYLQMNSLRAEDTAVYYCAKGVWWYHPLLFDYWGQGTLVTVSSGGGGSGGGGSGGGGSQSVLTQPPSASGTPGQRVTISCSGSSSNIGNNTVSWYQQLPGTAPKLLIYANSKRPSGVPDRFSGSKSGTSASLAISGLRSEDEADYYCGAWDSSLSGYVFGGGTKLTVL
notes: Single clone from a human VH3-23/VL1g phage scFv library, expressed in the E. coli periplasm; Purified scFv was used in SPR and ELISA, periplasmic extract in western blot and Luminex assay; also called antibody of the present invention; anti-KRS scFv antibody; not shown: His and HA tags of the pComb3X vector are implied by Ni-NTA purification and anti-HA detection
no binding: binding result [1] | binding result [2] | binding result [3] | binding result [4] | binding result [5] | binding result [6] | binding result [7]
100 nM: Kd [8]
